Laboratory results from patent publication US20220040304A1, “A COMPOSITION FOR CANCER CELL DEATH AND ITS USE” (Industry-University Cooperation Foundation Hanyang …, priority 2018, published 2022).

Key:
MDA-MB-231 = assay: Cell death after light irradiation by cell type (SYTOX Green/DAPI); assay type: cell-based, human; details: MDA-MB-231, protein 10 μM, light 10 mW/cm^2 for 10 minutes
Description: MDA-MB-231: (Origin: breast, mammary gland, Species: human—person, Growth pattern: monolayer, Media: DMEM with glucose (4.5 g/L), L-glutamine and sodium pyruvate, 90%; heat inactivated fetal bovine serum (FBS), 10%), purchased from Korean Cell Line Bank (KCLB).
(§1) The cells were seeded at 5×10^5 cells/mL in 96-well plates (SPL Cell Culture Plate, 96 well (SPL, Cat #30096)), and cultured at 37° C. for 24 hours (overnight). After the culture for 24 hours, the cells were washed with FBS & phenol red-free media, and 100 μL of FBS & phenol red-free media containing a purified protein (final concentration: 10 μM) was added, followed by reaction at 37° C. for 24 hours. After the reaction for 24 hours, the cells were washed with FBS & phenol red-free media, and 100 μL of FBS & phenol red-free media was added.
(§2) After irradiation with light at 10 mW/cm^2 for 10 minutes, 50 μL (final concentration: 261 nM) of SYTOX Green staining DNA of dead cells was added, followed by reaction at 37° C. for 30 minutes. 10 μL of DAPI staining DNA of live cells was added, followed by reaction for 5 minutes. Cell death was confirmed by observing KillerRed, SYTOX Green and DAPI fluorescence using a confocal microscope.

[1] = test system: patient breast cancer cell lines (primary cells, triple negative); assay: Cytotoxic effect in patient primary breast cancer cells (triple negative); assay type: cell-based; details: protein 10 μM
Description: Cells were seeded at 5×10^5 cells/mL in 96-well plates (SPL Cell Culture Plate, 96 well (SPL, Cat #30096)), and cultured at 37° C. for 24 hours. After the culture for 24 hours, the cells were washed with primary cell media, and 100 μL of primary cell media containing a purified protein (final concentration: 10 μM) was added, followed by reaction at 37° C. for 12 hours.
After the reaction for 24 hours, the cells were washed with primary cell media, and 100 μL of primary cell media was added. After treatment with a Co-h substrate solution (final concentration: 150 μM) for 5 minutes or irradiation with light at 10 mW/cm^2 for 5 minutes, 50 μL of SYTOX Green (final concentration: 261 nM) staining DNA of dead cells was added, followed by reaction at 37° C. for 30 minutes.
10 μL of DAPI staining DNA of live cells was added, followed by reaction for 5 minutes. Cell death was confirmed by fluorescence imaging of SYTOX Green and DAPI fluorescence according to the type of protein treating cells and the light irradiation time using a confocal microscope. Data on patient breast cancer cell lines used in this example are as follows (Table 5).

MCF-7 cells [2] = assay: Cell death according to presence of serum and protein treatment time (Co-h); assay type: cell-based, human; details: MCF-7, protein 10 μM, serum-free media or serum-containing media, Co-h 150 μM
Description: (§3) MCF-7 cells were seeded at 5×10^5 cells/mL in a 96-well plate (SPL Cell Culture Plate, 96 well (SPL, Cat #30096)), and cultured at 37° C. for 24 hours (overnight). After the culture for 24 hours, the cells were washed with FBS & Phenol red-free media (RPMI, Well Gene., Korea, Cat #LM011-02), and 100 μL of an FBS-free medium or FBS media (RPMI), containing purified protein (final concentration: 10 μM), was added, followed by reaction at 37° C. over time.
(§4) After the reaction, the cells were washed with FBS & Phenol red-free media (RPMI), 100 μL of FBS & Phenol red-free media (RPMI) containing a Co-h substrate solution (final concentration: 150 μM) and SYTOX Green (final concentration: 261 nM) staining DNA of dead cells was added, followed by reaction at 37° C. for 30 minutes.
(§5) After the reaction, 10 μL of DAPI staining DNA of live cells was added, followed by reaction for 5 minutes. Cell death was confirmed by observing KillerRed, SYTOX Green and DAPI fluorescence using a confocal microscope.

MCF-7 cells [3] = assay: Cell death according to presence of serum and protein concentration (Co-h); assay type: cell-based, human; details: MCF-7, serum-free media or serum-containing media, 12 hours, Co-h 150 μM
Description: MCF-7 cells were seeded at 5×10^5 cells/mL in a 96-well plate (SPL Cell Culture Plate, 96 well (SPL, Cat #30096)), and cultured at 37° C. for 24 hours (overnight). After the culture for 24 hours, the cells were washed with FBS & Phenol red-free media (RPMI), and 100 μL of FBS & Phenol red-free media (RPMI) or FBS media (RPMI) containing a predetermined concentration of purified protein, followed by reaction at 37° C. for 12 hours.
as §4, with “reaction for […],” for “reaction,”
as §5

MCF-7 cells [4] = assay: Cell death according to incubation time after various Co-h concentrations (SYTOX Green/DAPI); assay type: cell-based, human; details: MCF-7, protein 10 μM
Description: as §3, with “medium” for “medium or FBS media (RPMI),”, “containing the” for “containing”, “μM)” for “μM),”, “for 24 hours.” for “over time.”
After the reaction for 24 hours, the cells were washed with FBS & Phenol red-free media (RPMI), and then 100 μL of FBS & Phenol red-free media (RPMI) was added again. The reaction was performed by each concentration of the Co-h substrate solution, and then the cells were incubated at 37° C.
After incubation, 50 μL of SYTOX Green (final concentration: 261 nM) staining DNA of dead cells and DAPI 10 μL of DAPI staining DNA of live cells were added, followed by reaction for 5 minutes. Cell death was confirmed by detecting KillerRed, SYTOX Green and DAPI fluorescence according to the light irradiation time for cells using a confocal microscope.

MDA-MB-435 = assay: Cell death after light irradiation by cell type (SYTOX Green/DAPI); assay type: cell-based, human; details: MDA-MB-435, protein 10 μM, light 10 mW/cm^2 for 10 minutes
Description: MDA-MB-435: (Origin: breast, mammary gland, Species: human—person, Media: DMEM with glucose (4.5 g/L), L-glutamine and sodium pyruvate, 90%; heat inactivated fetal bovine serum (FBS), 10%), purchased from ATCC (USA).
as §1, §2

B1: RLuc8.6-KR-LP: fusion protein of RLuc8.6, KillerRed and lead peptide WLEAAYQRFL, 71 kDa (protein)
chain: MRGSHHHHHHGMASMTGGQQMGRDLYDDDDKDPMASKVYDPEQRKRMITGPQWWARCKQMNVLDSFINYYDSEKHAENAVIFLHGNATSSYLWRHVVPHIEPVARCIIPDLIGMGKSGKSGNGSYRLLDHYKYLTAWFELLNLPKKIIFVGHDWGSALAFHYAYEHQDRIKAIVHMESVVDVIESWMGWPDIEEELALIKSEEGEKMVLENNFFVETLLPSKIMRKLEPEEFAAYLEPFKEKGEVRRPTLSWPREIPLVKGGKPDVVQIVRNYNAYLRASDDLPKLFIESDPGFFYNAIVEGAKKFPNTEFVKVKGLHFLQEDAPDEMGKYIKSFVERVLKNEQEFGGGMLCCMRRTKQVEKNDEDQKISEGGPALFQSDMTFKIFIDGEVNGQKFTIVADGSSKFPHGDFNVHAVCETGKLPMSWKPICHLIQYGEPFFARYPDGISHFAQECFPEGLSIDRTVRFENDGTMTSHHTYELDDTCVVSRITVNCDGFQPDGPIMRDQLVDILPNETHMFPHGPNAVRQLAFIGFTTADGGLMMGHFDSKMTFNGSRAIEIPGPHFVTIITKQMRDTSDKRDHVCQREVAYAHSVPRITSAIGSDEDGGGWLEAAYQRFL
modifications: pRSET-RLuc8.6-KillerRed-Lead peptide
cell death after light irradiation (MDA-MB-231): killing the three types of cancer cell lines
death of Co-h substrate-added cells compared with light irradiation ([1]; Co-h 150 μM for 5 minutes): more effectively shown
cytotoxic effect in patient breast cancer cell lines ([1]; Co-h 150 μM for 5 minutes or light 10 mW/cm^2 for 5 minutes): a cytotoxic effect was exhibited
protein treatment time from which the number of cells stained with SYTOX Green increased (MCF-7 cells [2]): ~4 h
number of cells stained with SYTOX Green according to protein concentration (MCF-7 cells [3]): the higher the number of cells stained with SYTOX Green
cell incubation time after which the number of cells stained with SYTOX Green increased (MCF-7 cells [4]; 25 μM or 50 μM substrate solution for 5 minutes): ≥ 30 min
cell incubation time at which cells stained with SYTOX Green were observed (MCF-7 cells [4]; 150 μM substrate solution for 5 minutes): approximately 10 minutes
cell death after light irradiation (MDA-MB-435): killing the three types of cancer cell lines
